Source: patent publication US20180292408A1

Assays:
[1] = target: β-gal-Core-192 (HCV-241) (hepatitis C virus); assay: sandwich ELISA, C7-50 coated, detected with llama serum and HRP-goat-anti-llama antibody
[2] = target: β-gal-Core-192 (HCV-241) (hepatitis C virus); assay: sandwich ELISA, C7-50 capture, llama anti-serum detection
[3] = target: β-gal-Core-192 (HCV-241) (hepatitis C virus); assay: lateral flow immunoassay, C7-50 labelled with colloidal gold, purified rabbit antibody on the test line

β-gal-Core-192 (HCV-241) (hepatitis C virus), sequence (P00722 2-1024): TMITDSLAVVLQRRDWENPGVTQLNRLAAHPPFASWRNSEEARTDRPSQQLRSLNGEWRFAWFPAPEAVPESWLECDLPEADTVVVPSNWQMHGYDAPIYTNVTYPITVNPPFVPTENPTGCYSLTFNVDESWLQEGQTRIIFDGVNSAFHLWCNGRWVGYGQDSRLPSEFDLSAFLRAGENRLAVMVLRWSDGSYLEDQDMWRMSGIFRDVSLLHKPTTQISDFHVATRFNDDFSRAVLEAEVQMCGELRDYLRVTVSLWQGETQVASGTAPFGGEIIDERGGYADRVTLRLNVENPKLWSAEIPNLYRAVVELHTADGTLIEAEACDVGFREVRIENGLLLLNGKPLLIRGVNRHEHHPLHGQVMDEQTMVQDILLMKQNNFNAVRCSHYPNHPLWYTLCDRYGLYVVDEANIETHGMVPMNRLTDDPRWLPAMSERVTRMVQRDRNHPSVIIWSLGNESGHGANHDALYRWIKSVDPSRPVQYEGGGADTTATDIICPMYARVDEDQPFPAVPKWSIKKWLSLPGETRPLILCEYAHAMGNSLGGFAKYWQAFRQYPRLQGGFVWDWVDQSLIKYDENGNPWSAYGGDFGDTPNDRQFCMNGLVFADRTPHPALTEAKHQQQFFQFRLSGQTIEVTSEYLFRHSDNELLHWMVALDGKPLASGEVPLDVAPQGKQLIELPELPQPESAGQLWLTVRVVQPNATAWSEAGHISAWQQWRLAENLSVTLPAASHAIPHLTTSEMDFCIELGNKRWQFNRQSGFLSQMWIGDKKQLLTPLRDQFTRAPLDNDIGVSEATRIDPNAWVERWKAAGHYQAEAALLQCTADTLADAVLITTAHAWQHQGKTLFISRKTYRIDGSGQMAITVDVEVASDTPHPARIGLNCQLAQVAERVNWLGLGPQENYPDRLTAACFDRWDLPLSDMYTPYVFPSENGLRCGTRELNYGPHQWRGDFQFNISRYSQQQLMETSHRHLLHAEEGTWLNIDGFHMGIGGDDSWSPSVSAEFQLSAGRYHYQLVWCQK

In the case of “mouse monoclonal antibody (clone C7-50), Abcam”, the OD450 at 0 ng/ml antigen (background) [1] was 0.181 OD450, the OD450 at 8 ng/ml antigen [1] was 0.221 OD450 and the OD450 at 40 ng/ml antigen [1] was 0.214 OD450. It also gave an OD450 at 200 ng/ml antigen [1] of 0.3 OD450, an OD450 at 1000 ng/ml antigen [1] of 0.494 OD450 and an OD450 at 5000 ng/ml antigen [1] of 1.74 OD450. The OD450 at 25000 ng/ml antigen [1] was 2.18 OD450, the OD450 at 125000 ng/ml antigen [1] was 2.27 OD450 and the detection limit of the sandwich ELISA [2] was under 40 ng/mL. It also gave an antigen concentration detected in LFIA [3] of 0.3 ng/µL.
